For this test, the target named is catalytic domain of MMP-14 (MMP-14CAT) (human). Nature of the test: enzyme inhibition assay.

pKi: −log10 of the molar value.

In general, pKi refers to the Ki on a negative log10 scale, so that one unit is a factor of ten. In turn, “wild-type N-terminal domain of TIMP2 (N-TIMP2) (domain or fragment)” showed a pKi of 9.12.

The record behind these values is paper PMC7617879.
